Earlier results in publication PMC12612446.

Biological target: HER2 (Homo sapiens) (UniProt P04626)

In the case of trastuzumab, the Kd is listed as 0.58 nM.
